Substrate: Nc1ncnc2c1ncn2[C@@H]1O[C@H](COP(=O)(O)OP(=O)(O)OP(=O)(O)O)[C@@H](O)[C@H]1O
Assay: purified protein
Settings: microtubules; standard assay conditions; apparent Km from gliding velocity

B1: kinesin-II (wild type heterotrimer KLP-11/KLP-20/KAP-1) (Caenorhabditis elegans) (protein)
chain 1: MVEIMKKSSKQETVKVIVRCRPLSSQEIANNYSKIVHMRPQRGQIELKNPKEQDEPSKDFTFDAIYDENSTQSDLYEETFRDLVDSVLNGYNATIFAYGQTGTGKTHTMEGKSSDPEQRGVIYKCIDHIFEHMAASHNQEYLVRASYLEIYQEELRDLLEAESNKKLEIKERPDGGVYVKDLTSKLTRTVGEIHEVMIRGNGHRSVGRTNMNEHSSRSHAIFIITVECSRIGEDGESHITVGRLNLVDLAGSERQSKTGATGERFKEATKINLSLSALGNVISALVDAKSAHIPYRDSKLTRLLQDSLGGNSKTVMVACIGPASYNFEETLGTLRYANRAKNIKNQPKINEDPKDALLREFQEEIEMLREQLKQRKTRSRDGATQSFYDAERAKLEDDIEAIQKDDSLIKHEKDRLIREIQEKHDLLEKERIEQARVAERIANIQSRLIVGSEEDGRLESRTKEQHAQLEKKRRELAEQKRREREMVEALERQEEDTVDLKQTFSDLRTEVEAKTKKLKKMLIKLRQARNEIRDVSGAYSDERQDLDQTIAEVSKELKLKLLIVENFIPRDVSERIKERAEWNEDSFEWNVNAFQSTSSNSSTPLNNTIEVNEDGVFTRSSGADSGVSVSGGNGTPATSQFLDKRLVATPGCRRPMSMCERMLVETAREQFGAQRRPPISGSGSFVEATIPEETIRFCGENVVVFSALERFVPEVTDSDPSTFSNSMMMSARRPSIENLTIDASKVLVPILNQSTMILKNSKNGQARNDTMPPNGSMRRSQN
chain 2: MEGAEKVKVVVRCRPISTTEKLQGHKIAVTCNDEEKAVNIKSLSQEDPPRTFYFDAVFSPNTDQMTVYNVAARPIVENVLKGYNGTIFAYGQTGTGKTFTMAGDLEPVEMRGIIPNSFAHIFDHIAKCQHDTTFLVRVSYLEIYNEEIRDLLSKDHNGNLEIKERPDVGVYVRNLSNPTVENASKMQALMEFGSKNRKVGATAMNLESSRSHAMFTVTIESCRNGLVTQGKLQLVDLAGSERQSKTGAQGERLKEAAKINLSLSTLGNVISSLVDGKSTHIPYRNSKLTRLLQDSLGGNSKTVMIANVGPATYNYDETLSTLRYANRAKNIQNVAKINEDPKDAQLRKFQLEIEALRKILDEENPGDDENQEEAWEAKMQEREVEMEKKRKILEERVNSAVNDEETHRLVKEMMENEAELKKARSEHEKLRSKLEKIEKKLIVGGENLLEKVEEQAKLLEVNNKELEQSKFQEAHLRTQLEERTAVKVEIEERYSSLQEEAFVKSKKIKKVSNELKDARAELKDLEEDHQRQVEAMLDDIRQLRKELLLNIAIIDEYIPVEHVELIEKYVSWSEEHGDWQLKAIAYTGNNMRASAPPAKKEFSNNNQTVPMYYSYRADLGASTAEHRPRTSSKKHRASIRLQQLLT
- Vmax: 15.6 µM/min

Source: publication PMC3787135
